Test: yeast display, Sf9 membrane polyspecificity reagent, FACS + sequencing; frameworks hold sequencing errors
Method in brief: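 After 36–48 hours of galactose induction, yeast (Saccharomyces cerevisiae BJ5465) displaying a synthetic nanobody library were stained at 4 °C for 1 hour with 10% biotinylated, detergent-solubilized Sf9 membrane reagent. Streptavidin microbeads enriched the stained cells before FACS sorting into low and high (top ~1%) gates on anti-HA and streptavidin fluorescence. Each clone's polyreactivity label reflects its gate of origin.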

Sequence | polyreactivity (PSR sort gate)
QVQLVESGGGLVQAGGSLRLSCAASGITFLSNAMGWYRQAPGKERELVAAISRGGGTTYYADSVKGRFTISRDIAKNTVYLQMNSLKPEDTAVYYCAKGRCSSSRFDYWGQVTQVTVSS | high polyreactivity
QGQLVESGGGLVQAGGSLRLSCAASGFIFRNYAMGWYRQAPGKERELVAAISRGGSTYYADSVKGRFTISRDNAKNTVYLQMNSLKPEDTAVYYCAADASTYYGTQWASYYYWGQGTQVTVSS | high polyreactivity
QVQLVESGGGLVQAGGSLRLSCAASGSTLSENVMGWYRQAPGKERELVATISYSGDSTYYADSVKGRFTISRDNAKNTVYLQMNSLIPEDTAVYYCNADHFVTVGQFDWYDSWGQGTQVTVSS | low polyreactivity
QVQLVESGGGLVQAGGSLRLSCAASVLIFGPYTMGWYRQAPGKEREFDAAINRSGGSTYYADSVKGRFTISRDNAKNTVYLQMNSLKPEDTAVYYCNAEQYGKQWYSGYNYDYWGQGTQVTVSS | high polyreactivity
QVQLVESGGGLVQAGGSLRLSCAASGRIFDYAMGWYRQAPGKERELVAAISGSGGSTYYADSVKGRFTISRDNAKNTVYLQMNSLKPEDTAVYYCSTSGPQYYSRNFDYWGQGTQVTVSS | low polyreactivity
QVQLVESGGGLVQAGGSLRLSWAASGSTFVHNAMGWYIQAPGKERELVAGISRTGGSTYYADSVKGRFTISRDNAKNTVYLQMNSLKPEDTAVYYCAVRYPRSWQFDYWGQGTQVNVSS | high polyreactivity
QVQLVESGGGLVQAGGSLRLSCAASGRTFIPYAMGWYRQAPGKVRELVAAIRNGGSTNYADSVKGRFTISRDNAKNTVYLQMNSLKPEATAVYYCNADLPVYVDYINGGYGYWGQGTQVTVSS | low polyreactivity
QVQLVESGGGLVQAGGSLRLSFAASGRIFGTNTMGWYRQATGKERELVAGISSSGDSTYYADSVKGRFTISRDKAKNTVYLQINSLKPEDTAVYYCAARKGEFWLPQGGYNYWGQGTQVTVSS | low polyreactivity
QVQLVESGGGLVQAGGSLRLSCAASGSIVVRNAMGWYRQAPGKERELVAAITYRGGSTYYADSVKGRFTISRDNAKNTVYLQMNSLNPEDTAVYYCFDVNTDVLSRVYRGWGYYYWGQGTQVTVSS | low polyreactivity
QVQLVESGGGLVQAGGSLRLSCAASGSIFYYAMGWYREAPGKERELVAAISRSGGSTYYADSVKGRFTISRDNAKNTVYLQMNSLKPEDTAVYYCAKGYRGYSYGYWRQGTQVTVSS | high polyreactivity
QVQLVESGGGLVQAGGSLRLSCAASGRIFAWNDMGWYRQAPGKESELVAAITSGGSTYYADSVKGRFTISRDNAKNTVYLQMNCLKPEDTAVYYCAAGSAYYSQRYFAYGYDSWGQGTQVTVSS | low polyreactivity
QVQLVESGGGLVQAGGSLRLSCAASGSIYSSYAMGWYRQAPGKERELVAAISSSGDSTYADSVKGRFTISRDNAKNTVYLQMNSLKPEDTAVYYCAVGGAGSDDYWGQGTQVTVSS | low polyreactivity
QVQLVESGRGLVQAGGSLRISCAASGFTFVRYVMGWYRQAPGTESELVAAISRSGGSTHYADSVKGRFTISRDNAKNTVYFQMTSLKPEDTAVYYCAAACPRWPGQGDYWGQGTQVTVSS | high polyreactivity
QDHLVDSGGGLVQAGGSLRLSCAAYGFTFYYNTMGWYRQAPGKERQLVAAISYSAGSTFYADSVKGRFTISRDNAKNTVYLQMNSLKPEDTAVYYCAAGRPRLHKGYHFGYWGQGTQVTVSS | low polyreactivity
QVQLVESGGGLVQAGGSLRLSCAPSGFIFTRYAMGWYRQAPGKERELVAAISWSGGSTYYADSVKGRFTISRDNAKNTVYLQMNSLKPEDTAVYYCAADGSDSYDYWGQGTQVTVSS | low polyreactivity
QVQLVESGGGLVQAGGSLRLSCAASGSTFDWYAMGWYRQAPGKERELVAAISSDDSTYYADSVKGRFTISRDNAKNTVYLQMNSLKPEDTAVYYCAVDVYSDYGDYGYWGQGTQVTVSS | low polyreactivity
QVQLVESGGGLVQAGGCLRLSCAASGSIFFGYAMGWYRQAPGKERELVAAINGSVITSYADSVKGRFTISRDNAKNTVYLQMNSLKPEDTAYYCNTGSTWGAVIANYDHWGQGTQVTVSS | low polyreactivity
QVQLVESGGGLVQAGGSLRLSCAASGITFIRYAMGWYRQAPGKERELVAAISKDGDSTYYADSVKGRFTISRDNAKNTVYLQMNSLKPEDSGVYYCAAQRYSKALYNYWGQGTQVTVSS | high polyreactivity
QVQLVESGGGLVQAGGSLRLSCAASGSTIDYYAMGWYRQARGKERELVAAISWSGGSTYYADSVKGRFTISRDNAKNTVYLQMNSLKPEDTAVYYCAADSAFYTGSYYGWSDYDYWGQGTQVTVSS | low polyreactivity
QVQLVESGGGLVQAGGSLRLSCAASGSIFSRNAKGWYRQAPGKERELVAAITSGGSTNYADSVKGRFTISRDNAKNTVYLQMNSLKPEDTAVYYCARGWISGFTSRYSIRVLFDYWGQGTQVTVSS | high polyreactivity
QVHLGQSGGGLVQAGGSLRLSCAASAITFRGNAMGWYRQAPGKERDLVAVITKGGVSTYYADSVKGRFTISRDNAKNTVYLQMNSLKPEVTAVYYCAKYWSWRSVKDYYWGLGTQVTVSS | high polyreactivity
QVQLVESGGGLVQAGGSLRLSCAASGRTFRYYDMGWYRQAPGKERELVAAITSRGGSTYYADSVKGRFTISRDNAKNTVYLQMNSLIPEDTAVYDCNAYPVQIFYLGNRQYNYWGHGTQVTVSS | high polyreactivity

Sequence | polyreactivity (PSR sort gate)
QVQLVESGGGLVQAGGSLRLSCAASGRIFRANAMGWYRQAPGKERELVAGITRRGGSTNYADSVKGRFTISRDNAKTTVYLQMNSLKPEDTAVYYCNRDVSLSTSIRMDYWGQGTQVTVSS | low polyreactivity
QVQIVESGGGLVQAGGSLRLSCAASGRTFYSYAMGWYRQAPGKERELVAAIRWTGVRTYYADSVKGRFTISRDNAKNTVYLEINSLKPEDTAVYYCAVFRSSGKGYRGPRDYWGQGTQVTVSS | high polyreactivity
QVQLVESGGGLVQAGGSLRLSCAASGSNFHGNAMGWSRQAPGKERELVAAISQSGDSTYYADSVKGRFTISRDNAKNTVYLQMNSLKPEDTAVYYCAARSGYRGYYHFYYWGQGTQVTVSS | high polyreactivity
QVHLVESGGGLVQAGGSLRLSCAASGRILPFYAMGWYRQAPGKERELVATISWTSDSTYYADSVKGRFTISRDNAKNTVYLQMNSLKPEDTAVYYCAREYTYTYASTVIYDHWGQGTQVTVSS | low polyreactivity
QVQLVESGGGLVQAGGSLRLSCAASGRIFNWYAMGWYRQEPGKERELVAAISTDGSTYYADSVKGRFTISRDNAKNTVYLQMNSLKPEDTAVYYCAAVPGYTHLWGGPFDYWGQGTQVTVSS | low polyreactivity
QVQLVESGGGLVQAGGSLRLSCAASGRIFWRYAMGWYRQAPGKERELVAAITWSVGSTYYADSVKGRFTISRDNAKNTVYLLMNSLKPEDTAVYYCATDVKNVRYRYRYDYWGQGTQVTVSS | low polyreactivity
QVQLVESGGGLVQAGGSLRLSCAASGSIFIYNAMGWYRQAPGKERELVAAITWSGGRTYYADSVKGRFTISRDNAKNSVYLQMNSLKPEDTAVYYCNAVWTDAYYSYGYDYWGQGTQVTVSS | low polyreactivity
QVQLVESGGGLVQAGGSLRLSCAASGFIFGHNTMVWYRQAPGKERELVAAITRSGGRTYYADSVKGRFTISRDNAKNTVYLQMNSLKPEDTAVYYCNAYPTRPADGDYDYWGQGTQVTVSS | high polyreactivity
QVQLVESGGGLVQAGGSLRLSCAASGRISVRNTMGWYRQAPGKERELVARISSTGGSTYYADSVKGRFTISRDNAKNTVYLQMNSLKPEDTAVYYCNAKYYTRYPYLGKGDYWGQGTQVTVSS | high polyreactivity
QVQLVESGGGLVQAGGSLRLSCAASGRIFYAYTMGWYRQAPGKESELVAAIRYGGGSTYYADSVKGRFTISRDNAKNTVYLLMNSLIPEDTAVYYCARDRYNLYSRSYYWGQGTQVTVSS | low polyreactivity
QVQLVESGGGLVQAGGSLRLSCAASGRIFNLYDMGWYRQAPGKERELVAAITTGGDTTNYADSVKGRFTISRDNAKNTVYLQMNSLKPEDTAVYYCAADDGWIEPVYGYYEHEYWGQGTQVTVSS | low polyreactivity
QVQLVESGGGLVQAGGSLRLSCAASGSIFEGNAMGWYREAPGKERELVASISGDGSTNYADSVKGRFTISRDNAKNTVYLQMNSLKPEDTAVYYCNADTISEPGFHMDYWGQGTQVTVSS | low polyreactivity
QVQLQESGGGLVRAGGSLRMSCAASGNIFDADIMGWYRQAPGKERELVASITDGRRTNYADSVKGRYTISRDSEKNTVYLQMNSLKPEDTAVYYCAAIAYPVVPTYFDYDSDYFHWGQGTQVTVRS | high polyreactivity
QVQLVESGGGLVQAGGSLRLSCAASGRTFYNAMGWYRPAPGKERELVAAITTGGGTKYADSVKGRCTISRDNAKNTVYLQMNSLKPEDTAVYYCNTDEWYHFYHGAHKYDYWGQGTQVTVSS | low polyreactivity
QVQLVETGGALVQAGGSLRLSCAASGYTFYRYAMGWYRQATGKERELVAAISYSGGRTYYADSVKGRFTISCDIAKNTVYLQMNSLKPEDTAVYYCNARASYGHQGRLGYARLYYWGQGTQVTVSS | high polyreactivity
QVQLVESGGGLVQAGGSLGLSCAASGFTFYFYAMGWYRQAPGKERELVAANSRGTSTYYADSVKGRFTISRDNAKKTVYLQMNRLKPEDTAVYYCAARGLWPYDDWGQGTQVTVSS | low polyreactivity
QVQLVESGRGLVQAGGSLPLSCSASGSIFAYYTMGWYRQAPGKERDLVAAISETGGSTYYADSVKGRFTISRDIAKNTVYLQMNSLKPEDTAVYYCNADKYYYYTGQEYYPQYGYWGQGTQVSVSS | low polyreactivity
QDQLVESGGGLVQAGGSLRLSCAASGSIFRPNAMGWYRQAHGKERELVAAITYSTGSTYYADSVKGRFTISRDNAKNTVYLQMNSLKPEDTAVYYCAARFWRWLFPFDYLGQGTQVTVSS | high polyreactivity
QVQLVESGGGLDQAGGSLRLICAASGSTFGGYVMGWYRQAPGKERELVAAISRSGASTYYADSVKGRFTISRDNAKNTVYLQMNSLKPEDTAVYYCAAYQARGMDYWGQGTQVTVSS | high polyreactivity
QVQLVESGGGLVQAGGSLRLSCAASGRTIRNNAMGWYRQAPGKERDLVASITRSGGSTYYADSVKGRFTISRDNANNSVSLQLNSLKPEDTSVFYCNRVAHSLTYPTDHEFNYWGQGTQVTVSS | high polyreactivity
QVQLVESGGGLVQAGASLRLSCAASGRTFPGYAMGWSRQAPGKERELVAAITYRGGSTYYADSVKGRFTISRDNAKNTVYLQMNSLKPEDTAVYYCNARHSRSRFYYWGQGTQVTVSS | high polyreactivity
